Source: PMC3061877, “Comparison of the Frequency of Functional SH3 Domains with Different Limited Sets of Amino Acids Using mRNA Display” (PLoS ONE, 2011)

Target: wild-type src SH3 domain (T7·tag/His6 construct) (UniProt P00523 81-140)
Assay: other fluorescence titration; fluorescence perturbation assay; aliquots of peptide added to SH3 domain (0.5 µM) in PBS pH 7.4, 10 min at 20°C; excitation 278 nm, emission 350 nm
Conditions: both partners purified

Kd: 2300 ± 470 nM
B1: VSL12 peptide (peptide)
peptide: VSLARRPLPPLP
notes: The methods of the fluorescence perturbation assay say only 'peptide VSL12'; also called free VSL12 peptide; peptide VSL12; source: synthetic peptide, bought: Invitrogen
